From the supplement of paper PMC10567573
± gives the standard deviation.

Test: protein stability index of a GFP-peptide fusion (GPS, HEK-293T) (PSI 1-6); higher = more stable
Conditions: c terminus: a fixed tail appended
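Note: 24-mer peptide tiles fused after GFP, lentivirally expressed, FACS-sorted into six equal bins by GFP/DsRed ratio, decoded by Illumina sequencing, PSI is the read-weighted mean bin number.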

Row | Sequence | protein stability index (treatment: DMSO) | protein stability index (treatment: MLN4924 1 uM, 8 h)
1 | EVDAAPPVDLNKILEDMRCQYEAL [KRT36] | 4.59 ± 0.13 | 4.68 ± 0.096
2 | ILREELQKQRLREILEQQQQERND [ZNF277] | 4.4 ± 0.51 | 4.32 ± 0.33
3 | SVLKLHHSLQQSEPDLRHLVLVVN [SERTAD1] | 2.46 ± 0.24 | 2.04 ± 0.25
4 | RQFLPEEFMKTLEKTGPQLTSRIK [DENND6A] | 3.55 ± 0.33 | 3.58 ± 0.43
5 | NLRYGFTKEVMNKYKVHGKEILRT [PPEF2] | 2.63 ± 0.3 | 2.57 ± 0.31
6 | GEVPVLIHGENIICEATQIIDYLE [GDAP1] | 3.55 ± 0.29 | 3.6 ± 0.3
7 | MADPWQECMDYAVTLARQAGEVVC [IMPA1] | 2.56 ± 0.44 | 2.37 ± 0.21
8 | EVQGDQQAWFGFAGTPGYLSPEVL [CAMK2B] | 3.07 ± 0.35 | 3.14 ± 0.21
9 | PAYVGPEILSSRASYSGKAADVWS [TRIB3] | 3.09 ± 0.2 | 3.18 ± 0.19
10 | TLSFIVDGQYLGVAFRGLKGKKLY [SPSB4] | 2.16 ± 0.41 | 2.31 ± 0.31
11 | SLCCCCRWCCCCGERETRTPEELT [CLCN6] | 3.66 ± 0.41 | 3.88 ± 0.22
12 | RAVIAWMEKIPFVLGGNLQGGELV [CPXM2] | – | 2.36 ± 0.63
13 | LTTKGEMPVQLTSRREIRKIMGVE [ANKRD40] | 3.7 ± 0.048 | 3.85 ± 0.18
14 | LRIFVWLLLLYFMQVIAIVLYLMM [PHTF1] | 2.99 ± 0.71 | 2.75 ± 0.55
15 | IYGGELGPMMKLKRHFVAQKYKKQ [ACSBG2] | 2.49 ± 0.2 | 2.85 ± 0.25
16 | WGVVSHSFPATLETQEQDVDLVQK [MMP1] | 4.58 ± 0.34 | 4.73 ± 0.43
17 | SKAPGSCDPGTDPCPEDASTPRPP [TLE6] | 5.59 ± 0.28 | 5.45 ± 0.081

Row | Sequence | protein stability index (treatment: DMSO) | protein stability index (treatment: MLN4924 1 uM, 8 h)
18 | SKYHRFISFTLYLIGFCMFVLSLV [CDS2] | 2.04 ± 0.36 | 1.86 ± 0.51
19 | FPTDAPYPTTLGKDRECQSQSLAL [ZNF8] | 4.07 ± 0.15 | 4.05 ± 0.31
20 | VSKELRMYDEKAHEWKSLAPMDAP [KLHL13] | 3.73 ± 0.36 | 4.04 ± 0.11
21 | RNRPSFDAILYYYQSGGRLKRPVN [KCNA4] | 2.08 ± 0.27 | 2.42 ± 0.5
22 | LKKSNSAPSKKAAKDPGKGELPNH [FBF1] | 5.14 ± 0.1 | 5.08 ± 0.11
23 | VNVEMDAAPGVDLTRVLAEMREQY [KRT15] | 3.13 ± 0.42 | 3.27 ± 0.31
24 | GPDDSLWDKHACPAYVGPEILSSR [TRIB3] | 3.56 ± 0.25 | 3.54 ± 0.33
25 | PTMHLESPALQVMGPAQEAPVAEA [ZNF449] | 5.22 ± 0.17 | 5.21 ± 0.07
26 | GPPGSPGRAGAVGTPGERGPPGPP [EMID1] | 5.32 ± 0.84 | 4.81 ± 0.84
27 | DIKKVNNFIREQDLYALKSVKIPV [LYSMD4] | 2.38 ± 0.15 | 2.53 ± 0.4
28 | LSFEQMTDAHVWNKSVTLYTVKDK [NLN] | 2.61 ± 0.61 | 3.09 ± 0.63
29 | ITTDNLQCRERREHPNLVRDHVET [TEKT4] | 4.35 ± 0.085 | 4.44 ± 0.17
30 | PLHAPEAYFPYFKKHNVTAVVRLN [CDC14A] | 2.17 ± 0.094 | 2.08 ± 0.37
31 | RNRKLKCTFSLTHPANRSCRETGS [SLC22A15] | 3.37 ± 0.16 | 3.44 ± 0.23
32 | ISYLVLSMISMGLFSIAPLIYGSM [JAGN1] | 2.91 ± 0.46 | 3.19 ± 0.17
33 | RSRREQFSRAPVSALPLAPNHLGG [STX5] | 3.46 ± 0.15 | 3.77 ± 0.31
